The values below come from article PMC7572726 (Nature, 2020).

The series concerns the molecule itself. Briefly: crystal structure.

B1: Flavobacteriaceae sp. STING (ΔTM) (domain or fragment)
chain: EAEYSPAFALAVGYFKNFIFPAITQIKENGEVNPKICIYKPKHFDELTSTNIDMIKAELTNKKYNLSEINLSLKGARARDILTLNKKSKIHSYFDFPNTLLSLYSYVDFKIASSNNNSSELKKKKFVELLIEQFYLKLNELIQENNLTNNITFCDKNLQGL
The term stoichiometry N denotes the number of molecules, sites or subunits per partner or assembly. Take B1: the “stoichiometry N” value is 2.
